The values below come from the supplement of paper PMC11246515.

± gives the standard deviation of the averaged measurements.

This data set can be described thus: total protein half-life in vivo (active degradation + dilution); higher = more stable protein.
[1] abbreviates: E. coli NCM3722 delta-clpP delta-lon delta-hslV, growth: N-lim chemostat, doubling time 6 h.
[2] abbreviates: wild type E. coli NCM3722, growth: C-lim chemostat, doubling time 3 h.
Where [3] appears, read: wild type E. coli NCM3722, growth: C-lim chemostat, doubling time 6 h.
Where [4] appears, read: wild type E. coli NCM3722, growth: C-lim chemostat, doubling time 12 h.
Where [5] appears, read: wild type E. coli NCM3722, growth: P-lim chemostat, doubling time 12 h.
[6] abbreviates: E. coli NCM3722 delta-lon, growth: N-lim chemostat, doubling time 6 h.
The mark [7] stands for this setting: E. coli NCM3722 delta-smpB, growth: N-lim chemostat, doubling time 6 h.
Where [8] appears, read: wild type E. coli NCM3722, growth: N-lim chemostat, doubling time 6 h.
Where [9] appears, read: wild type E. coli NCM3722, growth: N-lim chemostat, doubling time 12 h.
The mark [10] stands for this setting: wild type E. coli NCM3722, growth: P-lim chemostat, doubling time 6 h.
The mark [11] stands for this setting: E. coli NCM3722 delta-clpP, growth: N-lim chemostat, doubling time 6 h.
Setting [12] is: E. coli NCM3722 delta-hslV, growth: N-lim chemostat, doubling time 6 h.

For “MITNTKLDPIETASVDELQALQTQRLKWTLKHAYENVPMYRRKFDAAGVHPDDFRELSDLRKFPCTTKQDLRDNYPFDTFAVPMEQVVRIHASSGTTGKPTVVGYTQNDIDNWANIVARSLRAAGGSPKDKIHVAYGYGLFTGGLGAHYGAERLGATVIPMSGGQTEKQAQLIRDFQPDMIMVTPSYCLNLIEELERQLGGDASGCSLRVGVFGAEPWTQAMRKEIERRLGITALDIYGLSEVMGPGVAMECLETTDGPTIWEDHFYPEIVNPHDGTPLADGEHGELLFTTLTKEALPVIRYRTRDLTRLLPGTARTMRRMDRISGRSDDMLIIRGVNVFPSQLEEEIVKFEHLSPHYQLEVNRRGHLDSLSVKVELKESSLTLTHEQRCQVCHQLRHRIKSMVGISTDVMIVNCGSIPRSEGKACRVFDLRNIVGA”, the “total protein half-life in vivo” value is, setting by setting: under setting [1], 4.99 ± 0.39 h; under setting [2], 0.692 ± 0.075 h; under setting [3], 0.955 ± 0.08 h; under setting [4], 1.21 ± 0.14 h; under setting [5], 0.624 h.

Turning to “MIIIRYLVRETLKSQLAILFILLLIFFCQKLVRILGAAVDGDIPANLVLSLLGLGVPEMAQLILPLSLFLGLLMTLGKLYTESEITVMHACGLSKAVLVKAAMILAVFTAIVAAVNVMWAGPWSSRHQDEVLAEAKANPGMAALAQGQFQQATNGSSVLFIESVDGSDFKDVFLAQIRPKGNARPSVVVADSGHLTQLRDGSQVVTLNQGTRFEGTALLRDFRITDFQDYQAIIGHQAVALDPNDTDQMDMRTLWNTDTDRARAELNWRITLVFTVFMMALMVVPLSVVNPRQGRVLSMLPAMLLYLLFFLIQTSLKSNGGKGKLDPTLWMWTVNLIYLALAIVLNLWDTVPVRRLRASFSRKGAV [P0AF98]”, the “total protein half-life in vivo” value by setting is: under setting [1], 6.78 ± 0.092 h; under setting [6], 6.05 ± 0.35 h; under setting [7], 6.02 ± 0.49 h; under setting [2], 3.17 ± 0.17 h; under setting [3], 5.94 ± 0.35 h; under setting [4], 10.4 h. Besides, the “total protein half-life in vivo” value under setting [8] came out at 5.9587 ± 0.0048 h, the “total protein half-life in vivo” value under setting [9] was found to be 12.6 ± 0.32 h, the “total protein half-life in vivo” value under setting [10] is 6.85 ± 0.98 h and the “total protein half-life in vivo” value under setting [5] is 12.6 ± 0.65 h.

Turning to “MKQATRKPTTPGDILLYEYLEPLDLKINELAELLHVHRNSVSALINNNRKLTTEMAFRLAKVFDTTVDFWLNLQAAVDLWEVENNMRTQEELGRIETVAEYLARREERAKKVA [P0A9T6]”, the “total protein half-life in vivo” value amounted to 5.02 ± 0.066 h under setting [1]; 3.95 ± 0.23 h under setting [11]; 0.853 h under setting [12]; 0.94 h under setting [6]; 0.895 ± 0.037 h under setting [7]; 0.871 ± 0.018 h under setting [2]. Further, the “total protein half-life in vivo” value under setting [3] worked out at 0.977 ± 0.032 h; the “total protein half-life in vivo” value under setting [4] is 1.53 h; the “total protein half-life in vivo” value under setting [8] is 1.08 h; the “total protein half-life in vivo” value under setting [9] is 1.08 h; the “total protein half-life in vivo” value under setting [10] amounted to 0.994 ± 0.08 h; the “total protein half-life in vivo” value under setting [5] was determined as 1.7 ± 0.7 h.

As to “MHYQPKQDLLNDRIILVTGASDGIGREAAMTYARYGATVILLGRNEEKLRQVASHINEETGRQPQWFILDLLTCTSENCQQLAQRIAVNYPRLDGVLHNAGLLGDVCPMSEQNPQVWQDVMQVNVNATFMLTQALLPLLLKSDAGSLVFTSSSVGRQGRANWGAYAASKFATEGMMQVLADEYQQRLRVNCINPGGTRTAMRASAFPTEDPQKLKTPADIMPLYLWLMGDDSRRKTGMTFDAQPGRKPGISQ”, the “total protein half-life in vivo” value under setting [1] was determined as 4.5 ± 0.46 h; the “total protein half-life in vivo” value under setting [11] was 4.29 ± 0.28 h; the “total protein half-life in vivo” value under setting [12] stood at 3.87 ± 0.11 h; the “total protein half-life in vivo” value under setting [6] came to 4.56 ± 0.44 h; the “total protein half-life in vivo” value under setting [7] amounted to 3.62 ± 0.049 h; the “total protein half-life in vivo” value under setting [2] was found to be 2.99 ± 0.043 h. Further, the “total protein half-life in vivo” value under setting [3] came to 5.77 ± 0.044 h; the “total protein half-life in vivo” value under setting [4] turned out to be 9.39 ± 1.9 h; the “total protein half-life in vivo” value under setting [8] turned out to be 3.68 ± 0.25 h; the “total protein half-life in vivo” value under setting [9] turned out to be 5.92 ± 0.058 h; the “total protein half-life in vivo” value under setting [10] worked out at 6.22 ± 0.24 h; the “total protein half-life in vivo” value under setting [5] worked out at 11.3 ± 0.24 h.

Consider “MSRPTIIINDLDAERIDILLEQPAYAGLPIADALNAELDRAQMCSPEEMPHDVVTMNSRVKFRNLSDGEVRVRTLVYPAKMTDSNTQLSVMAPVGAALLGLRVGDSIHWELPGGVATHLEVLELEYQPEAAGDYLL [P0AFW4]”, for which the “total protein half-life in vivo” value was determined as 4.22 ± 0.14 h under setting [1]; 1.49 h under setting [6]; 1.02 ± 0.099 h under setting [2]; 1.55 ± 0.086 h under setting [3]; 2.08 ± 0.0038 h under setting [4]; 1.43 ± 0.68 h under setting [8]. Further, the “total protein half-life in vivo” value came to 1.36 h under setting [10] and 2.53 h under setting [5].

For the sequence “MNKNRGFTPLAVVLMLSGSLALTGCDDKQAQQGGQQMPAVGVVTVKTEPLQITTELPGRTSAYRIAEVRPQVSGIILKRNFKEGSDIEAGVSLYQIDPATYQATYDSAKGDLAKAQAAANIAQLTVNRYQKLLGTQYISKQEYDQALADAQQANAAVTAAKAAVETARINLAYTKVTSPISGRIGKSNVTEGALVQNGQATALATVQQLDPIYVDVTQSSNDFLRLKQELANGTLKQENGKAKVSLITSDGIKFPQDGTLEFSDVTVDQTTGSITLRAIFPNPDHTLLPGMFVRARLEEGLNPNAILVPQQGVTRTPRGDATVLVVGADDKVETRPIVASQAIGDKWLVTEGLKAGDRVVISGLQKVRPGVQVKAQEVTADNNQQAASGAQPEQSKS [P0AE06]”, the “total protein half-life in vivo” value is 5.95 ± 0.32 h under setting [1]; 6.3 ± 0.28 h under setting [12]; 6.62 ± 0.54 h under setting [6]; 5.93 ± 0.21 h under setting [7]; 2.921 ± 0.024 h under setting [2]; 5.84 ± 0.46 h under setting [3]. Further, the “total protein half-life in vivo” value runs as follows: under setting [4], 12.1 ± 0.26 h; under setting [8], 6.134 ± 0.05 h; under setting [9], 13.33 ± 0.11 h; under setting [10], 5.814 ± 0.041 h; under setting [5], 12.5 ± 0.88 h.
